# Source: paper PMC6326804, “Structural insights into a unique preference for 3′ terminal guanine of mirtron in Drosophila TUTase tailor” (Nucleic Acids Research, 2018)
# B1: truncated miR-1003 (3'G) (ssRNA)
# RNA: CAUAUUCACAG
# B2: AGU (ssRNA)
# RNA: AGU
# B3: U4 (ssRNA)
# RNA: UUUU
# B4: AGUU (ssRNA)
# RNA: AGUU
# Legend:
# Tailor-C [1] = target: T1, Tailor-C (Drosophila melanogaster, UniProt Q9VI58, D343A); experiment: X-ray crystal structure (crystal soaking), […] A; format: binding; details: D343A crystals soaked with 10 mM UTP and 20 mM MgCl2 for 10 min; active site of catalytic groove
# T1 construct: core catalytic domain, residues 202-560; N-terminal 8xHis-SUMO tag cut by ULP1; E. coli host
# T1 sequence (Q9VI58 202-560 D343A): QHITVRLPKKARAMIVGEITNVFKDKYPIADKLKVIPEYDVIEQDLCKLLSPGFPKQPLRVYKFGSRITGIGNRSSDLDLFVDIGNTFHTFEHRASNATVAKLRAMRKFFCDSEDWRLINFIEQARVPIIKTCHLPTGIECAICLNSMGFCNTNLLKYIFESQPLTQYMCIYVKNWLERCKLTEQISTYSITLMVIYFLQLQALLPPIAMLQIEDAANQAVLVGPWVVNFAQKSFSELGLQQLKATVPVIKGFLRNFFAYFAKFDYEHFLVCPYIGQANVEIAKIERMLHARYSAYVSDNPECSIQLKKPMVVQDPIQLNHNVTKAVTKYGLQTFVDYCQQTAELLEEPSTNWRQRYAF
# Tailor-ZnC = target: T2, Tailor-ZnC (Drosophila melanogaster, UniProt Q9VI58); experiment: in-vitro nucleotide transferase assay, denaturing PAGE of Cy5-labelled RNA; format: biochemical; details: 1 mM UTP, 200 nM Cy5 truncated pre-mir-1003, 10 mM MgCl2, pH 7.2, 25 °C
# T2 construct: core domain with possible N-terminal C2H2 zinc finger, residues 137-560; N-terminal 8xHis-SUMO tag cut by ULP1; E. coli host
# T2 sequence (Q9VI58 137-560): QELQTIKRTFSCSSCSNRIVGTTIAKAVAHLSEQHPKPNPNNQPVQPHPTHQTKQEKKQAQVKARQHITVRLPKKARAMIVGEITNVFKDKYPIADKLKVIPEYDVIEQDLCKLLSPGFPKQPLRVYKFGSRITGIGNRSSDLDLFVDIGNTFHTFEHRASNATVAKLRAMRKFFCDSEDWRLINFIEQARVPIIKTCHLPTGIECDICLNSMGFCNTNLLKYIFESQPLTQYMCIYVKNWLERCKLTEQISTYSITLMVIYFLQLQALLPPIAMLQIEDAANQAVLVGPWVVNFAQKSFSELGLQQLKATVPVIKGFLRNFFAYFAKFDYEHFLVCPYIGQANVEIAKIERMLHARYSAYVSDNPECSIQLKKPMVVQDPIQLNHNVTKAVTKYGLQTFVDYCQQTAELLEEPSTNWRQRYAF
# Tailor-C V328R = Tailor-C V328R (Drosophila, UniProt Q9VI58 202-560, V328R); experiment: EMSA; no Mg2+ added; EMSA: 25 mM Tris-HCl pH 7.2, 100 mM NaCl, 5 mM DTT, 500 nM Cy5-RNA, 0-2.5 uM protein, 30 min on ice; 6% native gel at 4 C; details: protein: recombinant; tags: 8xHis-SUMO tag removed by ULP1; label: 5'-Cy5; single strand
# Chain of Tailor-C V328R (Q9VI58 202-560 V328R): as the sequence (Q9VI58 202-560 D343A) above, with V127R, A142D counted along it
# Tailor-C V328I = Tailor-C V328I (Drosophila, UniProt Q9VI58 202-560, V328I); experiment: as above; details: protein: recombinant; tags: 8xHis-SUMO tag removed by ULP1; label: 5'-Cy5; single strand
# Chain of Tailor-C V328I (Q9VI58 202-560 V328I): as the sequence (Q9VI58 202-560 D343A) above, with V127I, A142D counted along it
# Tailor-C V328L = Tailor-C V328L (Drosophila, UniProt Q9VI58 202-560, V328L); experiment: as above; details: protein: recombinant; tags: 8xHis-SUMO tag removed by ULP1; label: 5'-Cy5; single strand
# Chain of Tailor-C V328L (Q9VI58 202-560 V328L): as the sequence (Q9VI58 202-560 D343A) above, with V127L, A142D counted along it
# Tailor-C [2] = target: Tailor-C (Drosophila, UniProt Q9VI58 202-560); experiment: crystal structure; EMSA: 25 mM Tris-HCl pH 7.2, 100 mM NaCl, 5 mM DTT, 500 nM Cy5-RNA, 0-2.5 uM protein, 30 min on ice; 6% native gel at 4 C; details: protein: recombinant; tags: 8xHis-SUMO tag removed by ULP1; single strand
# Chain of Tailor-C (Drosophila, UniProt Q9VI58 202-560) (Q9VI58 202-560): as the sequence (Q9VI58 202-560 D343A) above, with A142D counted along it
molecule,measurement,setting,value
O=c1ccn([C@@H]2O[C@H](COP(=O)(O)OP(=O)(O)OP(=O)(O)O)[C@@H](O)[C@H]2O)c(=O)[nH]1 [UTP],"X-ray crystal structure (crystal soaking), 1.74 A",Tailor-C [1],The crystals of the complex of D343A with UTP were obtained by soaking crystals
same,"in-vitro nucleotide transferase assay, denaturing PAGE of Cy5-labelled RNA",Tailor-ZnC,"Purified Tailor-ZnC, Tailor-C and mutants were assayed for oligouridylation activity"
B1,binding result,Tailor-C V328R,binds
same,binding result,Tailor-C V328I,binds
same,binding result,Tailor-C V328L,binds
B2,binding result,Tailor-C [2],binds
B3,binding result,Tailor-C [2],binds
B4,binding result,Tailor-C [2],binds
